Patent US20210380647A1 (AFFILOGIC, published 2021)

Key:
TNFa mutant Y119R = molecular target: T1, TNFa mutant Y119R (UniProt P01375 77-233, Y119R); assay: ELISA of N11 on Y119 mutants (FIG. 12A)
T1 construct: The text speaks of 'Y119 mutants'; also called Y119 mutants; Y119 TNFalpha variants

TNFa mutant Y119A = molecular target: T2, TNFa mutant Y119A (UniProt P01375 77-233, Y119A); assay: ELISA of N11 on Y119 mutants (FIG. 12A)
T2 construct: The text speaks of 'Y119 mutants'; also called Y119 mutants; Y119 TNFalpha variants
T2 sequence (P01375 77-233 Y195A): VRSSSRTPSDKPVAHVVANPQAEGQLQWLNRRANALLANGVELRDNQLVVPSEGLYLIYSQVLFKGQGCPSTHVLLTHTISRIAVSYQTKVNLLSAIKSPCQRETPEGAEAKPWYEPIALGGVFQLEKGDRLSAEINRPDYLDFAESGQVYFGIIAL

murine TNFa = molecular target: T3, murine TNFa (murine, UniProt P06804 80-235); assay: ELISA at a single concentration (EC100) on a plate functionalized with mTNFa (FIG. 3)
T3 construct: also called mTNFa; mouse TNF
T3 sequence (looked up): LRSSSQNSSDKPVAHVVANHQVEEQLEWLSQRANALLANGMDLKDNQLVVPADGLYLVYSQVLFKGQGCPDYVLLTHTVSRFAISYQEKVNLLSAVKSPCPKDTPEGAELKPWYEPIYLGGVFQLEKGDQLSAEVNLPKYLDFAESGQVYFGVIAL
Experimental: Biotinylated antigens are immobilized on streptavidin-coated plates as described above, except that the blocking step is performed for 1h at room temperature. For the identification of the positive clones, 100 μl of E. coli crude extracts are applied to wells with or without immobilized antigen for 1 h at RT. The binding is visualized using anti-RGSHis antibody HRP conjugate (Qiagen) which detects RGSHis6 tag from the variant and a solution at 1 mg/ml of o-phenylenediamine substrate (OPD) in revelation buffer (0.05 M citric acid, 0.05% hydrogen peroxide). Absorbance at 450 nm is measured using an ELISA plate reader. Quantitative ELISAs is done in the same manner, except purified protein is used.
A plate was functionalized with hTNFa and mTNFa.

TNFa mutant S95C/G148C = molecular target: T4, TNFa mutant S95C/G148C (UniProt P01375 77-233, S95C; G148C, disulfide bridges between subunits via C95 and C148); assay: ELISA of N11 on TNFa mutants (FIG. 12)
T4 construct: Positions probably count on the mature soluble chain; also called stabilized trimer of TNFa; stabilized TNFa trimer
T4 sequence (P01375 77-233 S171C/G224C): as the sequence (P01375 77-233 Y195A) above, with S95C, A119Y, G148C counted along it

T1 sequence (P01375 77-233 Y195R): as the sequence (P01375 77-233 Y195A) above, with A119R counted along it

B1: N11 (designed binder)
chain: MVKVKFVMFGKEKEVDTSKIVHVMRQGKLVHFWYEDNGKIDKGFVPEKDAPKELLDMLARAEREK
notes: Variant of Sac7d selected by ribosome display on biotinylated hTNFa; also called Sac7d variant N11; Nanofitin N11
binding result (TNFa mutant Y119R): binds
binding result (TNFa mutant Y119A): binds
binding result (murine TNFa): binds
binding result (TNFa mutant S95C/G148C): no binding
